The subject of this data set is OC[C@H]1O[C@@H](O[C@H]2[C@H](O)[C@@H](O)C(O)O[C@@H]2CO)[C@H](O)[C@@H](O)[C@H]1O. The data set is described as follows: Steady-state kinetics, DCIP-based enzymatic activity assay. Format: biochemical, Neurospora crassa. Conditions: other: apparent constant, 100 mM McIlvaine buffer pH 5.5, DCIP as artificial electron acceptor, 30°C. How it is done: Enzyme activity was assayed at 30°C using the DCIP (Karapetyan et al., 2005 Journal of Biotechnology 121: 34-48) as electron acceptor. Stock solutions of carbohydrates used for kinetic measurements were prepared in the respective buffer and allowed to stand overnight for mutarotation, while stock solutions of electron acceptors were prepared in water and immediately used. The reaction stoichiometry is 1 for the two-electron acceptor DCIP (1 mole of DCIP reduced per mole of carbohydrate oxidized. Kinetic constants were calculated by fitting the observed data to the Henri-Michaelis-Menten equation or to the adapted model for substrate inhibition using nonlinear least-squares regression and the program SigmaPlot (Systat Software, San Jose, CF, USA). The protein concentration was determined with the Bradford assay.
CDH from N. crassa oxidises glucose and galactose (Harreither et al., 2007), which has negative side effects on the lactose detection accuracy if glucose and galactose are present. […] The enzyme variant N722Q was heterologously produced in P. pastoris according to the explained routines and compared to the recombinant wild-type CDH from N. crassa. […] To investigate the effect of the mutation in the N. crassa variant a full characterization of steady-state constants was performed (Tables 2 and 3). Table 2: Apparent kinetic constants of wtCDH for indicated electron donors in 100 mM McIlvaine buffer at pH 5.5 using DCIP as artificial electron acceptor
Table 3: Apparent kinetic constants of N722Q N. crassa sensor for indicated electron donors in 100 mM McIlvaine buffer at pH 5.5 using DCIP as artificial electron acceptor

The source of these data is patent publication EP3408384B1, “MUTATED CELLOBIOSE DEHYDROGENASE WITH MODIFIED SUBSTRATE SPECIFICITY” (priority 2016, dated 2017).

The term kcat denotes the maximal rate divided by the concentration of active sites. As usually defined, the kcat/Km is the second-order rate constant that governs catalysis at low substrate concentration. For “Neurospora crassa cellobiose dehydrogenase (CDH) variant N722Q (N722 of SEQ ID NO: 4 substituted by glutamine) (Neurospora crassa OR74A; N722Q)”, the Km is reported as 2.18 ± 0.28 > 10 M^b mM, the kcat came to 77.92 s⁻¹ and the kcat/Km came out at 35740 M⁻¹ s⁻¹.
